Values quoted from earlier work in patent publication US9394339B2, “Stabilized formulations of peptides and proteins protecting against non-enzymatic degradation” (Lyotropic Therapeutics, Inc., priority 2007, dated 2016).
Where two headings read alike, the source gives them in different places.

[1] = aqueous solution, pH 7.4, 37° C., Tris-HCl buffer

Row | Molecule | T1/2 (half-life, deamidation) (buffer, pH 7.4) | T1/10 (time to 10% degradation by deamidation) (pH 7.4) | T1/10 (time to 10% degradation by deamidation) [1]
1 | Fructose-1,6-bisphosphatase (1FTA): human protein (protein, UniProt P09467 2-338, looked up) Fructose-1,6-bisphosphatase 1: ADQAPFDTDVNTLTRFVMEEGRKARGTGELTQLLNSLCTAVKAISSAVRKAGIAHLYGIAGSTNVTGDQVKKLDVLSNDLVMNMLKSSFATCVLVSEEDKHAIIVEPEKRGKYVVCFDPLDGSSNIDCLVSVGTIFGIYRKKSTDEPSEKDALQPGRNLVAAGYALYGSATMLVLAMDCGVNCFMLDPAIGEFILVDKDVKIKKKGKIYSLNEGYARDFDPAVTEYIQRKKFPPDNSAPYGARYVGSMVADVHRTLVYGGIFLYPANKKSPNGKLRLLYECNPMAYVMEKAGGMATTGKEAVLDVIPTDIHQRAPVILGSPDDVLEFLKVYEKHSAQ | 59 days | 9.0 days | 
2 | Transaldolase (1F05): human protein (protein, UniProt P37837 1-337, looked up) Transaldolase: MSSSPVKRQRMESALDQLKQFTTVVADTGDFHAIDEYKPQDATTNPSLILAAAQMPAYQELVEEAIAYGRKLGGSQEDQIKNAIDKLFVLFGAEILKKIPGRVSTEVDARLSFDKDAMVARARRLIELYKEAGISKDRILIKLSSTWEGIQAGKELEEQHGIHCNMTLLFSFAQAVACAEAGVTLISPFVGRILDWHVANTDKKSYEPLEDPGVKSVTKIYNYYKKFSYKTIVMGASFRNTGEIKALAGCDFLTISPKLLGELLQDNAKLVPVLSAKAAQASDLEKIHLDEKSFRWLHNEDQMAVEKLSDGIRKFAADAVKLERMLTERMFNAENGK |  |  | 0.21 days
3 | Procathepsin L (1CS8): human protein (protein, UniProt P07711 18-333, looked up, pro-form) pro-form: TLTFDHSLEAQWTKWKAMHNRLYGMNEEGWRRAVWEKNMKMIELHNQEYREGKHSFTMAMNAFGDMTSEEFRQVMNGFQNRKPRKGKVFQEPLFYEAPRSVDWREKGYVTPVKNQGQCGSCWAFSATGALEGQMFRKTGRLISLSEQNLVDCSGPQGNEGCNGGLMDYAFQYVQDNGGLDSEESYPYEATEESCKYNPKYSVANDTGFVDIPKQEKALMKAVATVGPISVAIDAGHESFLFYKEGIYFEPDCSSEDMDHGVLVVGYGFESTESDNNKYWLVKNSWGEEWGMGGYVKMAKDRRNHCGIASAASYPTV |  |  | 7.3 days
4 | Medium chain acyl-coa dehydrogenase (1EGE): human protein (protein, UniProt P11310 26-421, looked up) Medium-chain specific …: KANRQREPGLGFSFEFTEQQKEFQATARKFAREEIIPVAAEYDKTGEYPVPLIRRAWELGLMNTHIPENCGGLGLGTFDACLISEELAYGCTGVQTAIEGNSLGQMPIIIAGNDQQKKKYLGRMTEEPLMCAYCVTEPGAGSDVAGIKTKAEKKGDEYIINGQKMWITNGGKANWYFLLARSDPDPKAPANKAFTGFIVEADTPGIQIGRKELNMGQRCSDTRGIVFEDVKVPKENVLIGDGAGFKVAMGAFDKTRPVVAAGAVGLAQRALDEATKYALERKTFGKLLVEHQAISFMLAEMAMKVELARMSYQRAAWEVDSGRRNTYYASIAKAFAGDIANQLATDAVQILGGNGFNTEYPVEKLMRDAKIYQIYEGTSQIQRLIVAREHIDKYKN |  |  | 5.5 days
5 | Procathepsin K (1BY8): human protein (protein, UniProt P43235 16-329, looked up, pro-form) pro-form: LYPEEILDTHWELWKKTHRKQYNNKVDEISRRLIWEKNLKYISIHNLEASLGVHTYELAMNHLGDMTSEEVVQKMTGLKVPLSHSRSNDTLYIPEWEGRAPDSVDYRKKGYVTPVKNQGQCGSCWAFSSVGALEGQLKKKTGKLLNLSPQNLVDCVSENDGCGGGYMTNAFQYVQKNRGIDSEDAYPYVGQEESCMYNPTGKAAKCRGYREIPEGNEKALKRAVARVGPVSVAIDASLTSFQFYSKGVYYDESCNSDNLNHAVLAVGYGIQKGNKHWIIKNSWGENWGNKGYILMARNKNNACGIANLASFPKM |  |  | 4.3 days
6 | Ribonuclease A (1AFK): human protein (protein, UniProt P61823 27-150, looked up) Ribonuclease pancreatic: KETAAAKFERQHMDSSTSAASSSNYCNQMMKSRNLTKDRCKPVNTFVHESLADVQAVCSQKNVACKNGQTNCYQSYSTMSITDCRETGSSKYPNCAYKTTQANKHIIVACEGNPYVPVHFDASV |  |  | 10 days
